Changes are numbered by the printed parent chain.
B1: GLS3000 T31P (antibody, name in Kabat numbering, V domains shown)
VH: QVQLVESGGGVVQPGRSLRLSCAASGFTFSNAWMHWVRQAPGKGLEWVAQIKAKSNNYATYYAESVKGRFTISRDDSKNSLYLQMNSLKTEDTAVYYCRYVHYGAYYGVDAWGQGTTVTVSS
VL: DIVMTQSPLSLPVTPGEPASISCRSSQSLVHSNRNPYLHWYQQKPGQAPRLLIYKVSNRFSGVPDRFSGSGSGTDFTLKISRVEAEDVGVYYCGQGTQVPYTFGQGTKLEIK
notes: one-arm format as m2
B2: GLS3000 T92E (antibody, name in Kabat numbering, V domains shown)
VH: B1 VH
VL: B1 VL with P36T, T97E
notes: one-arm format as m2
B3: GLS3000 V94H (antibody, name in Kabat numbering, V domains shown)
VH: B1 VH
VL: B1 VL with P36T, V99H
notes: one-arm format as m2
B4: GLS3000 T92A (antibody, name in Kabat numbering, V domains shown)
VH: B1 VH
VL: B1 VL with P36T, T97A
notes: one-arm format as m2
B5: GLS3000 V51I (antibody, name in Kabat numbering, V domains shown)
VH: B1 VH
VL: B1 VL with P36T, V56I
notes: one-arm format as m2
B6: GLS3000 V94T (antibody, name in Kabat numbering, V domains shown)
VH: B1 VH
VL: B1 VL with P36T, V99T
notes: one-arm format as m2
B7: GLS3000 V94D (antibody, name in Kabat numbering, V domains shown)
VH: B1 VH
VL: B1 VL with P36T, V99D
notes: one-arm format as m2
B8: GLS3000 V94Y (antibody, name in Kabat numbering, V domains shown)
VH: B1 VH
VL: B1 VL with P36T, V99Y
notes: one-arm format as m2
B9: GLS3000 V27cY (antibody, name in Kabat numbering, V domains shown)
VH: B1 VH
VL: B1 VL with V30Y, P36T
notes: one-arm format as m2
B10: GLS3000 Y32A (antibody, name in Kabat numbering, V domains shown)
VH: B1 VH
VL: B1 VL with P36T, Y37A
notes: one-arm format as m2
B11: GLS3000 V27cI (antibody, name in Kabat numbering, V domains shown)
VH: B1 VH
VL: B1 VL with V30I, P36T
notes: one-arm format as m2
B12: GLS3000 V94N (antibody, name in Kabat numbering, V domains shown)
VH: B1 VH
VL: B1 VL with P36T, V99N
notes: one-arm format as m2
B13: GLS3000 V94K (antibody, name in Kabat numbering, V domains shown)
VH: B1 VH
VL: B1 VL with P36T, V99K
notes: one-arm format as m2
B14: GLS3000 V94E (antibody, name in Kabat numbering, V domains shown)
VH: B1 VH
VL: B1 VL with P36T, V99E
notes: one-arm format as m2
B15: GLS3000 V94F (antibody, name in Kabat numbering, V domains shown)
VH: B1 VH
VL: B1 VL with P36T, V99F
notes: one-arm format as m2
B16: GLS3000 T92S (antibody, name in Kabat numbering, V domains shown)
VH: B1 VH
VL: B1 VL with P36T, T97S
notes: one-arm format as m2
B17: GLS3000 V27cS (antibody, name in Kabat numbering, V domains shown)
VH: B1 VH
VL: B1 VL with V30S, P36T
notes: one-arm format as m2
B18: GLS3000 V51D (antibody, name in Kabat numbering, V domains shown)
VH: B1 VH
VL: B1 VL with P36T, V56D
notes: one-arm format as m2
B19: GLS3000 V94L (antibody, name in Kabat numbering, V domains shown)
VH: B1 VH
VL: B1 VL with P36T, V99L
notes: one-arm format as m2
B20: GLS3000 V94P (antibody, name in Kabat numbering, V domains shown)
VH: B1 VH
VL: B1 VL with P36T, V99P
notes: one-arm format as m2
B21: GLS3000 T97P (antibody, name in Kabat numbering, V domains shown)
VH: B1 VH
VL: B1 VL with P36T, T102P
notes: one-arm format as m2
B22: GLS3000 V94W (antibody, name in Kabat numbering, V domains shown)
VH: B1 VH
VL: B1 VL with P36T, V99W
notes: one-arm format as m2
B23: GLS3000 V94A (antibody, name in Kabat numbering, V domains shown)
VH: B1 VH
VL: B1 VL with P36T, V99A
notes: one-arm format as m2
B24: GLS3000 V27cE (antibody, name in Kabat numbering, V domains shown)
VH: B1 VH
VL: B1 VL with V30E, P36T
notes: one-arm format as m2
B25: GLS3000 V94R (antibody, name in Kabat numbering, V domains shown)
VH: B1 VH
VL: B1 VL with P36T, V99R
notes: one-arm format as m2
B26: GLS3000 V94M (antibody, name in Kabat numbering, V domains shown)
VH: B1 VH
VL: B1 VL with P36T, V99M
notes: one-arm format as m2
B27: GLS3000 V94G (antibody, name in Kabat numbering, V domains shown)
VH: B1 VH
VL: B1 VL with P36T, V99G
notes: one-arm format as m2
B28: GLS3000 Y32D (antibody, name in Kabat numbering, V domains shown)
VH: B1 VH
VL: B1 VL with P36T, Y37D
notes: one-arm format as m2
B29: GLS3000 T92L (antibody, name in Kabat numbering, V domains shown)
VH: B1 VH
VL: B1 VL with P36T, T97L
notes: one-arm format as m2
B30: GLS3000 V51G (antibody, name in Kabat numbering, V domains shown)
VH: B1 VH
VL: B1 VL with P36T, V56G
notes: one-arm format as m2
B31: GLS3000 V94Q (antibody, name in Kabat numbering, V domains shown)
VH: B1 VH
VL: B1 VL with P36T, V99Q
notes: one-arm format as m2
B32: GLS3000 V27cD (antibody, name in Kabat numbering, V domains shown)
VH: B1 VH
VL: B1 VL with V30D, P36T
notes: one-arm format as m2
B33: GLS3000 Y32F (antibody, name in Kabat numbering, V domains shown)
VH: B1 VH
VL: B1 VL with P36T, Y37F
notes: one-arm format as m2
B34: GLS3000 T92D (antibody, name in Kabat numbering, V domains shown)
VH: B1 VH
VL: B1 VL with P36T, T97D
notes: one-arm format as m2
B35: GLS3000 V27cL (antibody, name in Kabat numbering, V domains shown)
VH: B1 VH
VL: B1 VL with V30L, P36T
notes: one-arm format as m2
B36: GLS3000 T92Y (antibody, name in Kabat numbering, V domains shown)
VH: B1 VH
VL: B1 VL with P36T, T97Y
notes: one-arm format as m2
B37: GLS3000 V51E (antibody, name in Kabat numbering, V domains shown)
VH: B1 VH
VL: B1 VL with P36T, V56E
notes: one-arm format as m2
B38: GLS3000 T92P (antibody, name in Kabat numbering, V domains shown)
VH: B1 VH
VL: B1 VL with P36T, T97P
notes: one-arm format as m2
B39: GLS3000 V94I (antibody, name in Kabat numbering, V domains shown)
VH: B1 VH
VL: B1 VL with P36T, V99I
notes: one-arm format as m2
B40: GLS3000 V94S (antibody, name in Kabat numbering, V domains shown)
VH: B1 VH
VL: B1 VL with P36T, V99S
notes: one-arm format as m2
B41: GLS3000 V51P (antibody, name in Kabat numbering, V domains shown)
VH: B1 VH
VL: B1 VL with P36T, V56P
notes: one-arm format as m2
B42: GLS3000 T92I (antibody, name in Kabat numbering, V domains shown)
VH: B1 VH
VL: B1 VL with P36T, T97I
notes: one-arm format as m2
B43: GLS3000 V27cP (antibody, name in Kabat numbering, V domains shown)
VH: B1 VH
VL: B1 VL with V30P, P36T
notes: one-arm format as m2

molecular target: CD3ε homodimer protein (human, UniProt P07766 23-126, limits assumed); test: SPR, immobilized CD3ε homodimer;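 note: biacore T200 surface plasmon resonance at 25 °C, antibody variants flowed as analytes over amine-coupled CD3ε homodimer on a CM4 chip, variant binding amount divided by that of GLS3000 antibody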
Sequence (P07766 23-126 limits assumed): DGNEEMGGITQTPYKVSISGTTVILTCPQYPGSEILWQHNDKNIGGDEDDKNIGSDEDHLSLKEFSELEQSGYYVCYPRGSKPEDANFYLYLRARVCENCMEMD
Experimental: Each one-amino acid altered form constructed, expressed, and purified in the paragraph (6-2) was evaluated using Biacore T200 (GE Healthcare Japan Corp.). An appropriate amount of CD3ε homodimer protein was immobilized onto Sensor chip CM4 (GE Healthcare Japan Corp.) by the amine coupling method. Then, the antibody having an appropriate concentration was injected thereto as an analyte and allowed to interact with the CD3ε homodimer protein on the sensor chip. Then, the sensor chip was regenerated by the injection of 10 mmol/L glycine-HCl (pH 1.5). The assay was conducted at 25° C., and HBS-EP+ (GE Healthcare Japan Corp.) was used as a running buffer. […] Each parameter was calculated using Biacore T200 Evaluation Software (GE Healthcare Japan Corp.).
Specifically, when the amount of the GLS3000-containing antibody bound was defined as X and the amount of the L chain one-amino acid altered form bound was defined as Y, a value of Z (ratio of amounts bound)=Y/X was used.

Row | Binder | ratio of amounts bound (vs GLS3000)
1 | B1 | 0.31
2 | B2 | 0.17
3 | B3 | 0.78
4 | B4 | 0.63
5 | B5 | 0.81
6 | B6 | 0.93
7 | B7 | 0.89
8 | B8 | 0.63
9 | B9 | 0.77
10 | B10 | 0.24
11 | B11 | 0.96
12 | B12 | 1.05
13 | B13 | 0.57
14 | B14 | 0.5
15 | B15 | 0.71
16 | B16 | 0.96
17 | B17 | 0.51
18 | B18 | 0.33
19 | B19 | 0.44
20 | B20 | 1.26
21 | B21 | 0.31
22 | B22 | 0.58

Row | Binder | ratio of amounts bound (vs GLS3000)
23 | B23 | 1.05
24 | B24 | 0.61
25 | B25 | 0.66
26 | B26 | 0.44
27 | B27 | 0.48
28 | B28 | 0.23
29 | B29 | 0.42
30 | B30 | 0.84
31 | B31 | 0.76
32 | B32 | 0.32
33 | B33 | 0.29
34 | B34 | 0.18
35 | B35 | 0.84
36 | B36 | 0.33
37 | B37 | 0.64
38 | B38 | 0.26
39 | B39 | 0.66
40 | B40 | 0.93
41 | B41 | 0.32
42 | B42 | 0.34
43 | B43 | 0.3

Reference: US20220040297A1 (Chugai, published 2022)
